Reference: PMC7790862

Target: HA-tagged human Junctophilin-2 with seven point mutations in the Joining region (Ad-mut^PG1JPH2) (human) (UniProt Q9BR39)
Assay: co-IP + proximity ligation

- percent reduction of the interaction against WT-JPH2: 30 to 40%
Substance: L-type Ca2+ channel pore-forming subunit α1C (natural protein)
